Source: patent US20130251711A1

Experiments:
[1] = molecular target: KIR on patient NK cells (KIR2D receptors; KIR2DL1 and KIR2DL2/3); test: receptor occupancy on patient NK cells by flow cytometry after a single i.v. dose of 0.003 mg/kg (AML dose-escalation trial)
[2] = molecular target: KIR on patient NK cells (KIR2D receptors; KIR2DL1 and KIR2DL2/3); test: receptor occupancy on patient NK cells by flow cytometry after a single i.v. dose of 0.0003 mg/kg (AML dose-escalation trial)

KIR occupancy [1]: 90%
KIR occupancy [2]: 50%
Substance: anti-KIR antibody 1-7F9
